The values below come from patent US20250325672A1.

Test [1] concerns the target SARS-CoV-2 protein used in the SPR assay of Example 2 (not named). Briefly: SPR. (In general: Surface plasmon resonance follows binding to a sensor surface in real time, without labels.)
Test [2] concerns the target Biotinylated 2019-nCoV (COVID-19) S1 protein (16-685), His, Avitag (SARS-CoV-2), P0DTC2. Briefly: SPR, Biacore T200, geomean.

B1: BCY16911 (peptide)
peptide: CVNKHNPVCRFYC
modifications: not checked
By pKD is commonly meant −log10 of the KD, conventionally taken in molar units. A lower pKD goes with a high KD. For the molecule B1, the pKD in test [1] turned out to be 8.

B2: BCY18707 (peptide)
peptide: CIPLDWTCMIAC
modifications: not checked
One may read the Kd as the equilibrium constant for the complex coming apart. The low end stands for a tighter complex, the high end for a looser complex. The molecule B2 yielded a Kd in test [2] of 2440 nM.
